# Measured values reported in patent US20150202287A1, “COMBINATION THERAPIES COMPRISING ANTI-ERBB3 AGENTS” (Merrimack Pharmaceuticals, Inc., priority 2012, published 2015).
# Experiments:
# phospho-ErbB3 (pErbB3) [1] = assay type: cell-based; details: up to 24 hours incubation
# Experimental: (§1) Cell lysates are probed for phospho-ErbB3 (pErbB3), and phospho-AKT (pAKT) by ELISA as described previously (Schoeberl et al, 2009) Inhibitor IC50 values are calculated by fitting dose-response data to a 4-parameter sigmoidal curve (GraphPad Prism®, GraphPad Software, Inc., La Jolla, Calif.).
# Model-generated dose-response curves overlay the experimental data (FIG. 7a). […] Untreated and heregulin-stimulated cells were probed for pErbB3 and pAKT and the IC50 was calculated (FIG. 7b).
# (§2) CRL-1504®), cells were incubated with serial dilutions of either inhibitor for 15 minutes, 1 hour, 4 hours, and 24 hours followed by stimulation with 5 nM heregulin for 10 min Amounts of pAKT and pErbB3 were measured by ELISA essentially as described.
# phospho-AKT (pAKT) = test: Cell signaling assay, pAKT ELISA, ZR75-30; assay type: cell-based; details: ZR75-30 cells, stimulation with 5 nM heregulin for 10 min; read-out: IC50, reduction of pAKT levels
# Experimental: as §1, §2
# ErbB2 and ErbB3 = test: Affinity of MM-111 antigen-binding sites
# phospho-ErbB3 (pErbB3) [2] = test: Cell signaling assay, pErbB3 ELISA, ZR75-30; assay type: cell-based; details: ZR75-30 cells, stimulation with 5 nM heregulin for 10 min; read-out: IC50, reduction of pErbB3 levels
# Experimental: as §1, §2
# NCI-N87 cells = test: T-DM1 and heregulin dose matrix cell viability, NCI-N87; assay type: cell-based; details: for cell viability: T-DM1 0 μg/ml, with MM-111 1 μM, 72 h
# Experimental: Cells were allowed to adhere 16-20 hours at +37° C., 5% CO2. Cells were stimulated for 4 hours by adding 5 μl of culture media containing recombinant human NRG-1-β1 EGF domain (HRG1) bringing the final HRG1 stimulation concentration to 0, 0.313, 0.625, 1.25, 2.5, 5 or 10 nM. […] All conditions were assayed in biological quadruplicates. Cells were incubated for 72 h at +37° C., 5% CO2. Cell viability was determined by CellTiter-Glo® Luminescent Cell Viability Assay by adding 20 μl of reconstituted CellTiter-Glo reagent per well, incubating plated for 10 minutes at RT in an orbital shaker and reading the luminescence signal using Biotek™ Synergy H1 Hybrid Reader.
Substance,inhibition of heregulin-induced ErbB3 activation relative to lapatinib (phospho-ErbB3 (pErbB3) [1]),IC50 (phospho-AKT (pAKT)) [nM],affinity of ErbB2 antigen-binding site relative to ErbB3 antigen-binding site (ErbB2 and ErbB3),IC50 (phospho-ErbB3 (pErbB3) [2]) [nM],cell viability (NCI-N87 cells; HRG 0 nM),cell viability (NCI-N87 cells; HRG 0.313 nM),cell viability (NCI-N87 cells; HRG 0.625 nM),cell viability (NCI-N87 cells; HRG 1.25 nM),cell viability (NCI-N87 cells; HRG 2.5 nM),cell viability (NCI-N87 cells; HRG 5 nM),cell viability (NCI-N87 cells; HRG 10 nM),activity of T-DM1 with exogenous HRG (NCI-N87 cells; HRG 0.313-10 nM)
MM-111,superior to lapatinib by greater than an order of magnitude,4,about 30 times,5,100 % of control,101.4158 % of control,105.024 % of control,110.2781 % of control,118.0867 % of control,126.5145 % of control,146.1417 % of control,
"ado-trastuzumab emtansine [T-DM1, reference compound]",,,,,,,,,,,,exogenous HRG decreases the activity of T-DM1
